Test results taken from patent US9127130B2, “Polylysine dendrimer contrast agent” (STARPHARMA PTY LTD., priority 2006, dated 2015).
Where two headings read alike, the source gives them in different places.

What was measured:
human thrombi = experiment: MRI of in vitro formed human plasma thrombi stained with Gadolinium loaded antibody-dendrimer constructs; type: cell-based
Procedure: Antibody-Dendrimer constructs (1.5 nmol) were loaded with Gadolinium by adding 64 nmol GdCl3.6H2O in PBS (0.1M, pH 7.4) overnight at room temperature under shaking. Excess Gadolinium was removed by dialysis (10,000 Dalton dialysis membrane, 12 h against 500 mL PBS with 3 buffer changes every 4 h).
To form human thrombi in vitro 1 mL platelet rich plasma (citrated blood spun down at 1000 rpm for 10 min) was mixed with 100 μL ADP, 88 μL Actin, 25 μL 1 M CaCl2 in a 1.5 mL reaction tube. Samples were incubated for 12 min at 37° C. in a water bath, incubated with antibody-dendrimer fusion product for another 30 min at 37° C. under continuous rotation. Thrombi were washed 3 times with 2 mL PBS for 10 min and fixed in formalin solution (1%) before imaging.
MRI of thrombi was performed on a 4.7 Tesla animal MRI scanner (Biospin Bruker). T1 weighted images with TE/TR 15 ms/350 ms were taken with a resolution of 512×512 μm (FOV 7 cm, average 4). 10 slices of 1 mm thickness were taken.

[1] = cited from earlier work

Row | Substance | stability of the conjugate ([1]; pH 4) | stability of the conjugate ([1]; pH 5) | stability of the conjugate ([1]; acidic conditions (pH 4-6)) | also measured
1 | MAL-(CH2)2CONH-PEG1100-CO-NEOEOEN[Su(NPN)2][Lys]8[Su-p-Bn-DTPA]16 [Example 7v] | – | – | – | MRI signal, control experiment (human thrombi; non reduced C-terminal cysteine antibody incubated with dendrimer): did not show any MRI signal; MRI signal, control experiment (human thrombi; non-modified antibody (no Traut's reagent) incubated with dendrimer): did not show any MRI signal
2 | [TFA.NH2(CH2)5NHSu]NEOEOEN[Su(NPN)2]Lys8[Su-p-Bn-DTPA]16 [Example 9iv] | – | – | – | MRI signal, control experiment (human thrombi; antibody incubated with dendrimer but without the Transglutaminase coupling enzyme): did not show any MRI signal
3 | α-methoxy-ω-{N-(2-octadecyloxy-[1,3]dioxolan-4-yl)methylamido}-polyethyleneglycol110 | good stability | good stability | – | –
4 | α-methoxy-ω-{N-2-(3-hydroxypropyl-cholesterylcarbarnate)-2-methyl-[1,3]dioxan-5-yl-amido}-polyethyleneglycol110 | – | – | not stable | –
5 | α-methoxy-ω-{N-(2-cholesteryloxy-[1,3]dioxolan-4-yl)methylamido}-polyethyleneglycol110 | moderately less stable | very stable | – | –
6 | α-methoxy-ω-{N-(2-methyl-s-octadecyloxy-[1,3]dioxan-5-yl)-amido}-polyethyleneglycol110 | – | – | not stable | –
